± gives the uncertainty stated by the source.
B1: Glucocorticoid receptor, residues 419 to 494; numbered along this chain, P04150 (parent)
chain: KLCLVCSDEASGCHYGVLTCGSCKVFFKRAVEGQHNYLCAGRNDCIIDKIRRKNCPACRYRKCLQAGMNLEARKTK

Variants of: B1
Experiment: abundance fitness (aPCA) (normalised: wild type 0, dead -1); higher = more abundant; growth selection in yeast, the domain comes from the species named
Conditions: Homo sapiens

Variant | abundance fitness
KLCLVCSDEASGCHYGVLTCGSCKVFFKRAVEGQHNYLCAGNNDCIIDKIRRKNCPACRYRKCLQAGMNLEARKTK [R42N] | 0.093 ± 0.071
KLCLVCSDEASGCHYGVLTCGSCKVFFKRAVEGQHNYLCAGRNDCIIDKIRRKNCPACRYRKCLQAGMNLEVRKTK [A72V] | -0.043 ± 0.035
KLCLVCSDEASGCHYGVLTCGSCKVFFKRAVEGQHNYSCAGRNDCIIDKIRRKNCPACRYRKCLQAGMNLEARKTK [L38S] | -0.035 ± 0.041
KLCLVCSDEASGCHYGVLTCGSCKVFFKRAVEGQHNYLCAGHNDCIIDKIRRKNCPACRYRKCLQAGMNLEARKTK [R42H] | -0.011 ± 0.074
KLCLVCSDEASGCHNGVLTCGSCKVFFKRAVEGQHNYLCAGRNDCIIDKIRRKNCPACRYRKCLQAGMNLEARKTK [Y15N] | 0.004 ± 0.067
KLCLVCSDEASGCHYGVLTCGSCKVFFKRAVEGQHNYLCAGRCDCIIDKIRRKNCPACRYRKCLQAGMNLEARKTK [N43C] | -0.193 ± 0.059
KLCLVCSDEASGCHYGVLTCGSCKVFFKRAVEGQHNYLCAGRNDCIIDKIRRKNCPACRYRKCLQASMNLEARKTK [G67S] | -0.516 ± 0.079
KLCLVCSDEASGCHYGVLTCGSCKVFFKRAVEGQHNYLCAGRNDWIIDKIRRKNCPACRYRKCLQAGMNLEARKTK [C45W] | -0.932 ± 0.13
KLCLVCSDEASGCHYGVLTCGSCKVFFKRAVEGQHNYLCAGRNDCIIDKDRRKNCPACRYRKCLQAGMNLEARKTK [I50D] | -0.032 ± 0.073
KLCLVCSDEASGCHYGVLTCGSCKVFFKRAVEGQHNYLCAGRNDCIIDKIRRKNCPACMYRKCLQAGMNLEARKTK [R59M] | -0.171 ± 0.054
KLCLGCSDEASGCHYGVLTCGSCKVFFKRAVEGQHNYLCAGRNDCIIDKIRRKNCPACRYRKCLQAGMNLEARKTK [V5G] | -0.732 ± 0.076
KLCLVCSDEASGCHYGVLTCGSCKVFFKRAVEGQHNYLCAGRNDCIIDKIRRKNCPACRWRKCLQAGMNLEARKTK [Y60W] | -0.036 ± 0.041
KLCLVCSDETSGCHYGVLTCGSCKVFFKRAVEGQHNYLCAGRNDCIIDKIRRKNCPACRYRKCLQAGMNLEARKTK [A10T] | -0.161 ± 0.048
KLCLVCSDEASGCHYTVLTCGSCKVFFKRAVEGQHNYLCAGRNDCIIDKIRRKNCPACRYRKCLQAGMNLEARKTK [G16T] | -0.264 ± 0.049
KLCLVCSDEASGCHYGVLTCGSCKVFFKRAVEGQHNYLCAGRNDCIIDKIRRKNCPACRYRKCLQAGMNDEARKTK [L70D] | -0.033 ± 0.072
KLCLVCSDEASGCHYGVLTCGSCKVFFKRAVEGQHNYLCACRNDCIIDKIRRKNCPACRYRKCLQAGMNLEARKTK [G41C] | -0.005 ± 0.059
KLCLVCSDEASGCHYGVLTCGSCKVFFKRAVEGQHNYLCAGRNDCIIDKIRRKNCPACRYRKCLQGGMNLEARKTK [A66G] | -0.109 ± 0.044
KLCLVCHDEASGCHYGVLTCGSCKVFFKRAVEGQHNYLCAGRNDCIIDKIRRKNCPACRYRKCLQAGMNLEARKTK [S7H] | 0.021 ± 0.09

Variant | abundance fitness
KLCLVCSDEASGCHYGVLTCGSCKVFFKRAVEGQHNYLCAGRNDCIIDKIRRKNCPACRYRKCLQDGMNLEARKTK [A66D] | -0.33 ± 0.082
KLCLVCSDEASGCHYGVLTCGSCKVFFKRAVEGQHNYLCAGRNDCCIDKIRRKNCPACRYRKCLQAGMNLEARKTK [I46C] | -0.025 ± 0.045
KLCLVCSDEASGCHYGVLTCGSCKVFFKRAVEGQHNYLCAGRNDCIIDKPRRKNCPACRYRKCLQAGMNLEARKTK [I50P] | 0.081 ± 0.07
KLCLVCSDEASGCHYGVVTCGSCKVFFKRAVEGQHNYLCAGRNDCIIDKIRRKNCPACRYRKCLQAGMNLEARKTK [L18V] | 0 ± 0.041
KLCLVCSDEASGCHYRVLTCGSCKVFFKRAVEGQHNYLCAGRNDCIIDKIRRKNCPACRYRKCLQAGMNLEARKTK [G16R] | -0.318 ± 0.04
KLCLVCSDEASGCHYGVLTCGSCKVFFKRAVEGQHNYLCAGRNDCIIDKIRRKNCPACRYRKCLKAGMNLEARKTK [Q65K] | -0.052 ± 0.045
KLCLVCSDEASGCHYGVLTCGSCKVFFKRAVEGQHNYLCAGRNDCIHDKIRRKNCPACRYRKCLQAGMNLEARKTK [I47H] | -0.304 ± 0.18
KLCLVCSDEASGCHYGVLTCGSCKVFFKHAVEGQHNYLCAGRNDCIIDKIRRKNCPACRYRKCLQAGMNLEARKTK [R29H] | -0.071 ± 0.075
KLCLVCSDEASGCHYGVLTCGSCKVFFKRAVEGQHNYLCAGRNDCIIDKIRRKNCPACRYRKFLQAGMNLEARKTK [C63F] | -0.322 ± 0.11
KLCLVCSDEASGCHYGVLTCGSCKVFFKRAVEGQHNYLCAGRNDCIIDKIRRKNCPACRYRKCLQSGMNLEARKTK [A66S] | -0.058 ± 0.039
KLCLVCSDEASGCHYGYLTCGSCKVFFKRAVEGQHNYLCAGRNDCIIDKIRRKNCPACRYRKCLQAGMNLEARKTK [V17Y] | -0.451 ± 0.1
KLCLVCSDEASGCHYGVLTCGSCKVFFKRAVEGQHNYLCAGRNDCIIDKIRRKNCPACYYRKCLQAGMNLEARKTK [R59Y] | -0.087 ± 0.074
KLCLVCSDEASGCHYGVLTCGSCKVFFKRAVEGQHNYHCAGRNDCIIDKIRRKNCPACRYRKCLQAGMNLEARKTK [L38H] | 0.035 ± 0.08
KLCLVCSDEASGCHYGVLTCGSCKVFFKRAVEGQCNYLCAGRNDCIIDKIRRKNCPACRYRKCLQAGMNLEARKTK [H35C] | -0.128 ± 0.065
QLCLVCSDEASGCHYGVLTCGSCKVFFKRAVEGQHNYLCAGRNDCIIDKIRRKNCPACRYRKCLQAGMNLEARKTK [K1Q] | -0.293 ± 0.064
KLCLVCSDEASGCHYGVLTCGSCKVFKKRAVEGQHNYLCAGRNDCIIDKIRRKNCPACRYRKCLQAGMNLEARKTK [F27K] | -0.951 ± 0.2
KLCLFCSDEASGCHYGVLTCGSCKVFFKRAVEGQHNYLCAGRNDCIIDKIRRKNCPACRYRKCLQAGMNLEARKTK [V5F] | -0.874 ± 0.24
KLCLVCSDEASGCHYGVLTCGSCKVGFKRAVEGQHNYLCAGRNDCIIDKIRRKNCPACRYRKCLQAGMNLEARKTK [F26G] | -1 ± 0.11

From the Human Domainome abundance scans (Beltran et al. 2025)
